Test results: patent US20160368960A1

Legend:
[1] = molecular target: rat GLP-1-R (rat) (UniProt P32301); experiment: cell-based or functional assay
[2] = molecular target: human Gcg receptor (human) (UniProt P47871); experiment: cell-based or functional assay
Chain of human Gcg receptor (human) (P47871 26-477): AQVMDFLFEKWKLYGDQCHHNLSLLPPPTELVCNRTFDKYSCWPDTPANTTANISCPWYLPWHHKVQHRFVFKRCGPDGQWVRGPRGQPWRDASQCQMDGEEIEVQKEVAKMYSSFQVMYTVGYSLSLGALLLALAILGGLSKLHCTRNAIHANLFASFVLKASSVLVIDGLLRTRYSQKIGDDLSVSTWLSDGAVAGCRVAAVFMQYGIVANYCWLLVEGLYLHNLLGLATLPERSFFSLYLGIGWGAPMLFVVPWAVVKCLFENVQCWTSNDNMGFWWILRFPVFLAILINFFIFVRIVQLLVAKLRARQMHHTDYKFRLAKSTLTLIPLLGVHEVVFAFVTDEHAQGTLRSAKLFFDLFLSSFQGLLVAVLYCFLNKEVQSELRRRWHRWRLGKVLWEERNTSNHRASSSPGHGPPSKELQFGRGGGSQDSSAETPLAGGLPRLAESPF

Chain of Wild type human OXM (ligand) (peptide): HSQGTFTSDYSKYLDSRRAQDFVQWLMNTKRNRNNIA

Emax (%), cAMP production in INS1 832-3 cells [1]	Emax (%), cAMP production in primary human hepatocytes [2]	Substance
107%		Semaglutide (peptide)
	90%	Wild type human OXM (ligand)
